Test results published in paper PMC4785404, “The three-dimensional structure of Clostridium absonum 7α-hydroxysteroid dehydrogenase: new insights into the conserved arginines for NADP(H) recognition” (Scientific Reports, 2016).
“And” between values parts separate entries of the source, which are not always exact repeats. Identical values can stand only once.

Key:
[1] = system: NC(=O)c1ccc[n+]([C@@H]2O[C@H](COP(=O)(O)OP(=O)(O)OC[C@H]3O[C@@H](n4cnc5c(N)ncnc54)[C@H](OP(=O)(O)O)[C@@H]3O)[C@@H](O)[C@H]2O)c1; assay: purified protein; settings: assay conditions by cited earlier methods; co-substrate not given; SD in parentheses; crystal structure of complex with TCDCA also solved; varied: cofactor
[2] = target: the molecule itself; assay: SEC; purified CA 7α-HSDH in aqueous solution; standard proteins of 669, 440, 158, 75, 44, 29 and 13.7 kDa; the dimer fraction of the first run was collected and run again; the tetramer fractions were checked by MS

For CA 7α-HSDH (Clostridium sardiniense), the Km [1] was 0.34 (0.01) mM, the kcat [1] was 13.8 s⁻¹ and the kcat/Km [1] was 40100 M⁻¹ s⁻¹.

B1: 7α-hydroxysteroid dehydrogenase from Clostridium absonum (enzyme, UniProt G9FRD7 1-262, looked up)
chain: MKRLEGKVAIVTSSTRGIGRASAEALAKEGALVYLAARSEELANEVIADIKKQGGVAKFVYFNAREEETYTSMVEKVAEAEGRIDILVNNYGGTNVNLDKNLTAGDTDEFFRILKDNVQSVYLPAKAAIPHMEKVGGGSIVNISTIGSVVPDISRIAYCVSKSAINSLTQNIALQYARKNIRCNAVLPGLIGTRAALENMTDEFRDSFLGHVPLNRVGRPEDIANAVLYYASDDSGYVTGMIHEVAGGFALGTPQYSEYCPR
notes: 7α-hydroxysteroid dehydrogenase (CA 7α-HSDH), Clostridium absonum; the gene was cloned into pGEX-6p-1; Crystallised with NADP+ and TCDCA; also called CA 7α-HSDH; 7α-HSDH; source: E. coli BL21 (DE3), GST-fused from pGEX-6p-1, purified (monoQ, superdex 75)
In the case of B1, the “stoichiometry N” value [2] is reported as 2 and 4.
